*1 amine or outer side, *2 acyl side, *3 side chain or, on linkers, in order; H or OH if unused. Where a SMILES comes first, the peptide text is derived from it. Where no end group is shown, it is not given here. Side-chain parts run from the residue outwards. The star is where a group is joined. C20 diacid = O=C(O)CCCCCCCCCCCCCCCCCCC(=O)*; C18 diacid = O=C(O)CCCCCCCCCCCCCCCCC(=O)*; γGlu = O=C(O)[C@H](CCC(=O)[*:2])N[*:1]; Trx = NC[C@H]1CC[C@H](C(=O)O)CC1; AEEA = NCCOCCOCC(=O)O
T1: Y2 receptor (Homo sapiens, UniProt P49146)
T1 construct: host or cells: ACTOne HEK-293 cells
T1 sequence (P49146 1-381): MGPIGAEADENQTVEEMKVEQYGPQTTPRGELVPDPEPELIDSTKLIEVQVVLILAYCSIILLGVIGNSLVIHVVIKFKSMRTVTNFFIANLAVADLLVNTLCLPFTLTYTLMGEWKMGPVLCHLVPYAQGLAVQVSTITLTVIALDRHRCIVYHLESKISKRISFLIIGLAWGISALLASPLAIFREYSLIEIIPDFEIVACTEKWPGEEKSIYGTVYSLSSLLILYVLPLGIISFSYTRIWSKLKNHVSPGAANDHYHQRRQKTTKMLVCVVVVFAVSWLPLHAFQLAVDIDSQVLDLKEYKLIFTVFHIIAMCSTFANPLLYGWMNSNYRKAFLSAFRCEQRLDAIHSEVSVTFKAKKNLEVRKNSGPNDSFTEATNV

T2: Y2 receptor (UniProt P49146 1-381, limits assumed)
T2 sequence (looked up): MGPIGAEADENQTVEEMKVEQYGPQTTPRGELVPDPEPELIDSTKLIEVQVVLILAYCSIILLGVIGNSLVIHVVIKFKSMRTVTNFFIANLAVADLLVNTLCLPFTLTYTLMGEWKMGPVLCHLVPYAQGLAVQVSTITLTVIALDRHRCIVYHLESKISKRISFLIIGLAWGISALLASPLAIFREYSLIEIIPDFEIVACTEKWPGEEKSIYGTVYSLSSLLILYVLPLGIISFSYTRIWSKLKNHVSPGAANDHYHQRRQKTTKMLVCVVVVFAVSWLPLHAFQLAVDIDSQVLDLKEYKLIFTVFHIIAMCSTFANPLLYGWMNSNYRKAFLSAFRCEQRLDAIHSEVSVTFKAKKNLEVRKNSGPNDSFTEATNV

B1: N-alfa-[2-(2-{2-[2-(2-{2-[(S)-4-Carboxy-4-({trans-4-[(19-carboxynonadecanoylamino)methyl]cyclohexanecarbonyl}amino)butyrylamino]-ethoxy}ethoxy)acetylamino]ethox … (peptide)
peptide: APLEPVYPGDNATPEQLAQYAADLRRYINLLTRPRY
modifications: not fully specified (N-terminus); printed as N-alfa-[2-(2-{2-[2-(2-{2-[(S)-4-Carboxy-4-({trans-4-[(19-carboxynonadecanoylamino)methyl]cyclohexanecarbonyl}amino)butyrylamino]-ethoxy}ethoxy)acetylamino]ethoxy}ethoxy)acetyl][Leu17,Leu30]hPP1-36; ends and bridges not checked

Tests used:
Y2 receptor [1] = molecular target: T1, Y2 receptor; assay: Y2 receptor ACTOne based FLIPR assay (cAMP biosensor); format: cell-based
From the text: ACTOne™ is an easily scaleable cAMP biosensor HTS platform for measurement of Gs and Gi coupled 7™ receptor signalling from BD Biosciences (San Jose, Calif.). The cells express a biosensor developed around a modified rat olfactory cyclic nucleotide gated (CNG) calcium channel—a fairly non-discriminatory ion channel that responds to cAMP and cGMP. The CNG has been engineered to be cAMP selective and thus function as a cAMP responsive biosensor that signals through calcium or membrane potential responsive dyes. Y2 or Y4 receptor expressing ACTOne HEK-293 cells are obtained from BD Biosciences. The cells are loaded with a calcium responsive dye that only distributes in the cytoplasm. Probenecid, an inhibitor of the organic anion transporter is added to prevent the dye from leaving the cell. A phosphodiesterase inhibitor is added to prevent formatted cAMP from being degraded. Isoproterenol (an β1/β2 agonist) is added to activate the adenylate cyclase. When an Y2 or Y4 receptor agonist is added, the adenylate cyclase is inactivated. The decreased calcium concentration in the cytoplasm is then detected as an increase in fluorescence. Together with the test substance, Isoproterenol at a concentration matching EC80, is added to all wells. • The cells are plated out in Greiner 384-well plates. […] The plates are covered with tinfoil to avoid light (the dye can be excited by the daylight, which results in higher baseline and variation). • The FLIPR (FLIPRtetra from Molecular Devices, CA, USA) adds 1 μl sample and 1 μl isoproterenol (0.05 μM final concentration) at the same time. • The fluorescence signal from the wells is measured 330 seconds after sample addition on the FLIPR.

Y2 receptor [2] = molecular target: T2, Y2 receptor; assay: cell-based or functional assay
Y4 receptor = Y4 receptor (UniProt P50391 1-375, limits assumed); assay: cell-based or functional assay
Chain of Y4 receptor (P50391 whole entry): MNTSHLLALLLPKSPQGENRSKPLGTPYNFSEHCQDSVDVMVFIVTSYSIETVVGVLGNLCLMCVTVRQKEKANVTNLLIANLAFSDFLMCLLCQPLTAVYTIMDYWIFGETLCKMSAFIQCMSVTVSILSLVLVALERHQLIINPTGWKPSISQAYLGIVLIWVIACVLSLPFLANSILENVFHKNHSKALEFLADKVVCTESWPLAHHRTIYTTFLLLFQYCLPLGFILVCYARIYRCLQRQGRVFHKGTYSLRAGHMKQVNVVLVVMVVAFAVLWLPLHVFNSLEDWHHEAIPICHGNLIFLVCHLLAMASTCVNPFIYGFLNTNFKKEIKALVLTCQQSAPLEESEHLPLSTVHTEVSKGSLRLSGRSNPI

Molecule | EC50 (Y2 receptor [1]) [nM] | Y2 cAMP EC50 (Y2 receptor [2]) [nM] | Y4 cAMP EC50 (Y4 receptor) [nM]
CC[C@H](C)[C@H](NC(=O)[C@H](Cc1ccc(O)cc1)NC(=O)[C@H](CCCNC(=N)N)NC(=O)[C@H](CCCNC(=N)N)NC(=O)[C@H](CC(C)C)NC(=O)[C@H](CC(=O)O)NC(=O)[C@H](C)NC(=O)[C@H](C)NC(=O)[C@H](Cc1ccc(O)cc1)NC(=O)[C@H](CCC(N)=O)NC(=O)[C@H](C)NC(=O)[C@H](CC(C)C)NC(=O)[C@H](CCC(N)=O)NC(=O)[C@H](CCC(=O)O)NC(=O)[C@@H]1CCCN1C(=O)[C@H](CCCCNC(=O)COCCOCCNC(=O)COCCOCCNC(=O)CC[C@H](NC(=O)[C@H]1CC[C@H](CNC(=O)CCCCCCCCCCCCCCCCCCC(=O)O)CC1)C(=O)O)NC(=O)[C@H](C)NC(=O)[C@H](CC(N)=O)NC(=O)[C@H](CC(=O)O)NC(=O)CNC(=O)[C@@H]1CCCN1C(=O)[C@H](Cc1ccc(O)cc1)NC(=O)[C@@H](NC(=O)[C@@H]1CCCN1C(=O)[C@H](CCC(=O)O)NC(=O)[C@H](CC(C)C)NC(=O)[C@@H]1CCCN1C(=O)[C@H](C)N)C(C)C)C(=O)N[C@@H](CCC(N)=O)C(=O)N[C@@H](CC(C)C)C(=O)N[C@@H](CC(C)C)C(=O)N[C@H](C(=O)N[C@@H](CCCNC(=N)N)C(=O)N1CCC[C@H]1C(=O)N[C@@H](CCCNC(=N)N)C(=O)N[C@@H](Cc1ccc(O)cc1)C(N)=O)[C@@H](C)O [SEQ ID NO: 18, N-epsilon13-[2-(2-{2-[2-(2-{2-[(S)-4-Carboxy-4-({trans-4-[(19-carboxynonadecanoylamino)methyl]cyclohexanecarbonyl}amino)butyrylamino]-ethoxy}ethoxy)acetylamino]ethoxy}ethoxy)acetyl][Lys13,Leu17,Gln29,Leu30]hPP(1-36)] (H-APLEPVYPGDNAK([AEEA-AEEA-γGlu-Trx-C20 diacid])PEQLAQYAADLRRYIQLLTRPRY-NH2) | > 1000 |  | 
PLEPVYPGDNATPEQLAQYAADLRRYINLLTRPK([AEEA-AEEA-γGlu-C18 diacid])Y (ends and bridges not checked) |  | > 1000 | > 1000
PLEPVYPGDK([AEEA-AEEA-γGlu-C18 diacid])ATPEQLAQYAADLRRYINLLTRPRY (ends and bridges not checked) |  | > 1000 | 1
PLEPVYPGDNATPEQLAQYAADLRRYIK([AEEA-AEEA-γGlu-Trx-C20 diacid])LLTRPRY (ends and bridges not checked) |  | > 1000 | > 890
PLEPVYPGDNATPEQLAQYAADLRRYINLLTK([AEEA-AEEA-γGlu-Trx-C20 diacid])PRY (ends and bridges not checked) |  | > 1000 | > 1000
APLEPVYPGDNAK([AEEA-AEEA-γGlu-Trx-C20 diacid])PEQLAQYAADLRRYINVLTRQRY (ends and bridges not checked) |  | 130 | 7
PLEPVYPGDNATPEQLAQYAADLRK([AEEA-AEEA-γGlu-C18 diacid])YINLLTRPRY (ends and bridges not checked) |  | > 1000 | 5
APLEPVYPGDNAK([AEEA-AEEA-γGlu-Trx-C20 diacid])PEQLAQYAADLRRYVNLLTRQRY (ends and bridges not checked) |  | 63 | 65
PLEPVYPGDNATPEQLAQYAADLRRYINLLTK([AEEA-AEEA-γGlu-C18 diacid])PRY (ends and bridges not checked) |  | > 1000 | > 1000
PLEPVYPGDNATPEQLK([AEEA-AEEA-γGlu-Trx-C20 diacid])QYAADLRRYINLLTRPRY (ends and bridges not checked) |  | > 1000 | 0.8
PLEPVYPGDNATPEQLAQYAADLRK([AEEA-AEEA-γGlu-Trx-C20 diacid])YINLLTRPRY (ends and bridges not checked) |  | > 1000 | 7
APLEPVYPGDNAK([AEEA-AEEA-γGlu-Trx-C20 diacid])PEQLAQYAADLRRYINLLTRQRY (ends and bridges not checked) |  | 54 | 18
B1 |  | > 1000 | 3.2
PLEPVYPGDNATPEQLAQYAADLRRYINLLTRPK([AEEA-AEEA-γGlu-Trx-C20 diacid])Y (ends and bridges not checked) |  | > 1000 | > 1000
PLEPVYPGDNATPEQLK([AEEA-AEEA-γGlu-C18 diacid])QYAADLRRYINLLTRPRY (ends and bridges not checked) |  | > 1000 | 0.4
PLEPVYPGDNATPEQLAQYAADLRRYINLLTRPRY (ends and bridges not checked) [[Leu17,Leu30]hPP2-36] |  | > 1000 | 0.9
PLEPVYPGDK([AEEA-AEEA-γGlu-Trx-C20 diacid])ATPEQLAQYAADLRRYINLLTRPRY (ends and bridges not checked) |  | > 1000 | 2
APLEPVYPGNDAK([AEEA-AEEA-γGlu-Trx-C20 diacid])PEQLAQYAADLRRYINLVTRPRY (ends and bridges not checked) |  | 92 | 18
APLEPVYPGDNAK([AEEA-AEEA-γGlu-Trx-C20 diacid])PEQLAQYAADLRRYIQLLTRPRY (ends and bridges not checked) |  | > 1000 | 130
APLEPVYPGDNAK([AEEA-AEEA-γGlu-Trx-C20 diacid])PEQLAQYAADLRRYLNVLTRQRY (ends and bridges not checked) |  | 73 | 7
PLEPVYPGDNATPEQLAQYAADLK([AEEA-AEEA-γGlu-Trx-C20 diacid])RYINLLTRPRY (ends and bridges not checked) |  | > 1000 | > 1000

From US20110275559A1, “Long-Acting Y2 and/or Y4 Receptor Agonists” (Novo Nordisk A/S, priority 2008, published 2011)
